Experimental data from US20190374608A1 (BOARD OF TRUSTEES OF THE UNIVERSITY OF ILLINOIS, published 2019).
Each block holds one binder with its values, some of them ahead of it. Where no end group is shown, it is not given here. (CH2CH2O)27 = 27 units of polyethylene glycol linked to the C-terminal Asp, ending in NH2

Experiments:
[1] = biological target: T1, human CCR3 in membrane preparations, 13C-reductively methylated (CCR3-K-di13CH3) (human, UniProt P51677 1-355, lysines reductively methylated with 13C (K-di13CH3)); experiment: NMR, 13C HSQC of 13C-reductively methylated CCR3 membrane preps (0.25 mg/ml) with 1 µM CCL11
T1 construct: also called CCR3 membrane preps; C-C chemokine receptor 3
T1 sequence (looked up): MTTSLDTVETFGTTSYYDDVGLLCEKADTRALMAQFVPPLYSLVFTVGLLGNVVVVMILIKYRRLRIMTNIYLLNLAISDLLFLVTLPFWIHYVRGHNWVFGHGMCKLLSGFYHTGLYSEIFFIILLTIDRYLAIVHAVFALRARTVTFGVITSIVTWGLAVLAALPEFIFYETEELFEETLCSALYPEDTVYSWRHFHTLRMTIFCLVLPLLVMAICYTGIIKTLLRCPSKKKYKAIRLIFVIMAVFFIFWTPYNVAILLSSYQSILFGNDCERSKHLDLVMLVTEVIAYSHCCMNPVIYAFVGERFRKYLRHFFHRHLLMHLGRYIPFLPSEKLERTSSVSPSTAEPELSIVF
Experimental: FIG. 6A to FIG. 6E show NMR evaluation of the binding of R3-2-1 and CCL11/eotaxin-1 to CCR3 membrane preparations. ¹³C HSQC spectra of ¹³C-reductively methylated CCR3 membrane preps (0.25 mg/ml) were recorded with 1 μM CCL11 and 10 μM R321. FIG. 6A, reductively methylated CCR3 (CCR3-K-di¹³CH3) (gray) and reductively methylated CCR3 with CCL11 (black); FIG. 6B, reductively methylated CCR3 (CCR3-K-di¹³CH3) (gray) and reductively methylated CCR3 with R321 (black); FIG. 6C, reductively methylated CCR3 (CCR3-K-di¹³CH3) (gray) and reductively methylated CCR3 with CCL11 and R321 (black); FIG. 6D, reductively methylated CCR3 with CCL11 (gray) and reductively methylated CCR3 with CCL11 and R321 (black); and FIG. 6E, reductively methylated CCR3 with R321 (gray) and reductively methylated CCR3 with CCL11 and R321 (black) show chemical shift changes indicative of binding. Black arrows indicate the differences in chemical shifts.

[2] = biological target: T2, human CCR3 on cells (AML14.3D10-CCR3 cells, blood eosinophils, 4DE4-CCR3 cells) (human, UniProt P51677 1-355); experiment: cell-based or functional assay
T2 sequence (looked up): T1 sequence (looked up)

binding result [1]: binds
B1: recombinant human CCL11 (ligand)
chain: not shown
notes: also called eotaxin; eotaxin-1

IC50 of inhibition of CCL11/Eotaxin-1 (12 nM)-induced chemotaxis, AML14.3D10-CCR3 cells [2]: 210 nM | IC50 of inhibition of CCL11/Eotaxin-1 (12 nM)-induced chemotaxis, blood eosinophils [2]: 110 nM | IC50 of inhibition of CCL24/Eotaxin-2 (20 nM)-induced chemotaxis, AML14.3D10-CCR3 cells [2]: 140 nM | IC50 of inhibition of CCL24/Eotaxin-2 (20 nM)-induced chemotaxis, blood eosinophils [2]: 80 nM | IC50 of inhibition of CCL26/Eotaxin-3 (100 nM)-induced chemotaxis, AML14.3D10-CCR3 cells [2]: 100 nM | IC50 of inhibition of CCL26/Eotaxin-3 (100 nM)-induced chemotaxis, blood eosinophils [2]: 160 nM
Binder: LLFLVTLPFWIHYVRGHNWVFGHDDD-{(CH2CH2O)27-NH2} [R3-2-1 peptide (CCR3 second transmembrane helix peptide analog, PEG27, C-terminal amide)]
